{
  "source": "paper PMC6024848",
  "target": "AcLys, putative Acinetobacter baumannii AB 5075 prophage endolysin (Acinetobacter baumannii AB 5075 (prophage region))",
  "test": "SEC; gel permeation (size-exclusion) chromatography of recombinant AcLys; Superose 12 HR10/30 in 50 mM Bis-Tris pH 6.0 named for the purification step; monomer and dimer fractions redistribute to the mixture 3-4 h after separation; more monomer in dilute solution; beta-mercaptoethanol does not affect dimerization; dimer to monomers",
  "data": [
    {"substance": "AcLys, putative Acinetobacter baumannii AB 5075 prophage endolysin (enzyme)", "values": [
      {"measurement": "stoichiometry N", "result": 2}
    ]}
  ]
}
